Results as given in the Human Domainome abundance scans (Beltran et al. 2025).
± gives the uncertainty stated by the source.

B1: Integrator complex subunit 12, residues 155 to 213; numbered along this chain, Q96CB8 (parent)
chain: AMEMGLACVVCRQMMVASGNQLVECQECHNLYHRDCHKPQVTDKEANDPRLVWYCARCT

Variants of: B1
Assay: abundance fitness (aPCA) (normalised: wild type 0, dead -1); higher = more abundant; growth selection in yeast, the domain comes from the species named
Conditions: Homo sapiens

For AMEMGLACVVCRQMMVASGNQCVECQECHNLYHRDCHKPQVTDKEANDPRLVWYCARCT [L22C], which abundance fitness is on record?
Its abundance fitness is -0.03 ± 0.035.

For AMEMGLACVVCRQMMVASGNQLVECQGCHNLYHRDCHKPQVTDKEANDPRLVWYCARCT [E27G], which abundance fitness is on record?
The abundance fitness was -0.043 ± 0.031.

Which abundance fitness does the source give for AMEMGLACVVCRQMMVESGNQLVECQECHNLYHRDCHKPQVTDKEANDPRLVWYCARCT [A17E] here?
Its abundance fitness is -0.04 ± 0.074.

For AMEMGLACVVCRQMMVISGNQLVECQECHNLYHRDCHKPQVTDKEANDPRLVWYCARCT [A17I], which abundance fitness is on record?
Its abundance fitness is -0.098 ± 0.038.

Which abundance fitness does the source give for AMEMGLACVVCRQMMVYSGNQLVECQECHNLYHRDCHKPQVTDKEANDPRLVWYCARCT [A17Y] here?
The abundance fitness was -0.091 ± 0.044.

With AMEMGLACVVCRQMMVASGNQLVECQECHNLYHRDCHKPQVTDKEANDPRLVWYCWRCT [A56W] as the variant, how does the abundance fitness read?
Its abundance fitness is -0.134 ± 0.05.

With AMEMGLACVVCRQMMVASGNQLVECQECHNLYHRDCHKPQVTDKEANDPRLVWYCTRCT [A56T] as the variant, how does the abundance fitness read?
Its abundance fitness is -0.054 ± 0.05.

With AMEMGLACVVCRQMMVASGNQLVECQECHNLYHRDCHKPQVTDKEANDPRLVWYCHRCT [A56H] as the variant, how does the abundance fitness read?
The abundance fitness was -0.031 ± 0.11.

Which abundance fitness does the source give for AMEMGLAQVVCRQMMVASGNQLVECQECHNLYHRDCHKPQVTDKEANDPRLVWYCARCT [C8Q] here?
Its abundance fitness is -0.71 ± 0.076.

With AMEMGLALVVCRQMMVASGNQLVECQECHNLYHRDCHKPQVTDKEANDPRLVWYCARCT [C8L] as the variant, how does the abundance fitness read?
The abundance fitness was -0.978 ± 0.054.

For AMEMGLAGVVCRQMMVASGNQLVECQECHNLYHRDCHKPQVTDKEANDPRLVWYCARCT [C8G], which abundance fitness is on record?
Its abundance fitness is -1.11 ± 0.09.

For AMEMKLACVVCRQMMVASGNQLVECQECHNLYHRDCHKPQVTDKEANDPRLVWYCARCT [G5K], which abundance fitness is on record?
The abundance fitness was 0.143 ± 0.053.

Which abundance fitness does the source give for AMEMGLACVVCRQMMVASGNQLVECQECHNLYHRDHHKPQVTDKEANDPRLVWYCARCT [C36H] here?
Its abundance fitness is -0.516 ± 0.046.

With AMEMGLACVVCRQMMVASGNQLVECQECHNLYHRDCHKPQVTDKIANDPRLVWYCARCT [E45I] as the variant, how does the abundance fitness read?
Its abundance fitness is -0.213 ± 0.1.

With AMEMGLACVVCRQMMVASGNQLVECQECHNLYHRDCHKPQVTDKFANDPRLVWYCARCT [E45F] as the variant, how does the abundance fitness read?
Its abundance fitness is -0.192 ± 0.086.

With AMEMGLACVVCRQMMVASGNQLVECQECHNLYHRDCHKPQVTDKCANDPRLVWYCARCT [E45C] as the variant, how does the abundance fitness read?
Its abundance fitness is -0.111 ± 0.074.

For AMEMGLACVVCRQMMVASGNQLVECQECHNLYHRDCHKPQVTDKAANDPRLVWYCARCT [E45A], which abundance fitness is on record?
Its abundance fitness is -0.087 ± 0.044.

With AMEMGLACVVCRQMMVASGNQLVECQECHNLYHRDCHKSQVTDKEANDPRLVWYCARCT [P39S] as the variant, how does the abundance fitness read?
Its abundance fitness is -0.228 ± 0.049.

For AMEMGLACVVCRQMMVASGNQLVECQECHNLYHRDCHKPQVTDKEANDPRLVGYCARCT [W53G], which abundance fitness is on record?
The abundance fitness was -0.27 ± 0.052.

For AMEMGLACVVCRQMMVASGNQLVECQECHNLYHRDCHKPQVTDKEANDPRLVHYCARCT [W53H], which abundance fitness is on record?
Its abundance fitness is -0.266 ± 0.097.

Which abundance fitness does the source give for AMEMGLACVVCRQMMVASGNQLVECQECHNLYHRDCHKPQVTDKEANDPRLVQYCARCT [W53Q] here?
The abundance fitness was -0.205 ± 0.061.

For AMEMGLACVVCRQMMVASGNQLVECQECCNLYHRDCHKPQVTDKEANDPRLVWYCARCT [H29C], which abundance fitness is on record?
The abundance fitness was -0.185 ± 0.037.

For AMEMGLACVVCRQMMVASGNQLVECQECHNLYHRDCHKPQVTDKEANDKRLVWYCARCT [P49K], which abundance fitness is on record?
The abundance fitness was 0.001 ± 0.072.

For AMEMGLACVVCRQMMVASGNQLVECQECHNLYHRDCHKPQVTDKEANDIRLVWYCARCT [P49I], which abundance fitness is on record?
Its abundance fitness is 0.002 ± 0.14.

For ATEMGLACVVCRQMMVASGNQLVECQECHNLYHRDCHKPQVTDKEANDPRLVWYCARCT [M2T], which abundance fitness is on record?
Its abundance fitness is 0.073 ± 0.045.

Which abundance fitness does the source give for AWEMGLACVVCRQMMVASGNQLVECQECHNLYHRDCHKPQVTDKEANDPRLVWYCARCT [M2W] here?
Its abundance fitness is -0.167 ± 0.075.

With AGEMGLACVVCRQMMVASGNQLVECQECHNLYHRDCHKPQVTDKEANDPRLVWYCARCT [M2G] as the variant, how does the abundance fitness read?
Its abundance fitness is 0.009 ± 0.032.

Which abundance fitness does the source give for ACEMGLACVVCRQMMVASGNQLVECQECHNLYHRDCHKPQVTDKEANDPRLVWYCARCT [M2C] here?
The abundance fitness was -0.112 ± 0.04.

For AYEMGLACVVCRQMMVASGNQLVECQECHNLYHRDCHKPQVTDKEANDPRLVWYCARCT [M2Y], which abundance fitness is on record?
The abundance fitness was -0.127 ± 0.044.

Which abundance fitness does the source give for AMEWGLACVVCRQMMVASGNQLVECQECHNLYHRDCHKPQVTDKEANDPRLVWYCARCT [M4W] here?
Its abundance fitness is -0.43 ± 0.064.

With AMEHGLACVVCRQMMVASGNQLVECQECHNLYHRDCHKPQVTDKEANDPRLVWYCARCT [M4H] as the variant, how does the abundance fitness read?
The abundance fitness was 0.065 ± 0.041.

For AMEFGLACVVCRQMMVASGNQLVECQECHNLYHRDCHKPQVTDKEANDPRLVWYCARCT [M4F], which abundance fitness is on record?
The abundance fitness was -0.096 ± 0.038.

Which abundance fitness does the source give for AMEMGLACVVCRQMMVASGNQLVECQECHNLYHRDCHKPQVTDKEANDPNLVWYCARCT [R50N] here?
Its abundance fitness is 0.15 ± 0.12.

Which abundance fitness does the source give for AMEMGLACVVCRQMMVASGNQLVECQECHNLYHRDCHKPQVTDKEANDPVLVWYCARCT [R50V] here?
Its abundance fitness is -0.177 ± 0.067.

Which abundance fitness does the source give for AMEMGLACVVCRQMMVASGNQLVECQECHNLYHRDCHKPQVTDKEANDPQLVWYCARCT [R50Q] here?
The abundance fitness was -0.059 ± 0.061.

Which abundance fitness does the source give for AMEMGLACVVCRQMMVASGNQLVECQECHNLYHRDCHKPQVTDKEANDPWLVWYCARCT [R50W] here?
Its abundance fitness is -0.206 ± 0.093.

With AMEMGLACVVCNQMMVASGNQLVECQECHNLYHRDCHKPQVTDKEANDPRLVWYCARCT [R12N] as the variant, how does the abundance fitness read?
Its abundance fitness is 0.002 ± 0.034.

Which abundance fitness does the source give for AMEMGLACVVCLQMMVASGNQLVECQECHNLYHRDCHKPQVTDKEANDPRLVWYCARCT [R12L] here?
The abundance fitness was -0.101 ± 0.035.

With AMEMGLACVVCRQMMVASGNQLVECQECHNLYHRDCHKPQVTDKEANDPRWVWYCARCT [L51W] as the variant, how does the abundance fitness read?
The abundance fitness was -0.108 ± 0.059.

For AMEMGLACVVCRQMMVASGNQLVECQECHNLYHRDCHKPQVTDKEANDPRIVWYCARCT [L51I], which abundance fitness is on record?
The abundance fitness was -0.282 ± 0.08.

With AMEMGLACVVCRQMMVASGNQLVECQECHNLYHRDCHKPQVTDKEANDPRSVWYCARCT [L51S] as the variant, how does the abundance fitness read?
The abundance fitness was 0.049 ± 0.051.

Which abundance fitness does the source give for AMEMGLACVVCRQMMVASGNQLVECQECHNLYHRDCHKPQVTDKECNDPRLVWYCARCT [A46C] here?
Its abundance fitness is -0.149 ± 0.067.

With AMEMGLACVVCRQMMVASGNQLVECQECHNLYHRDCHKPQVTDKEANDPRLWWYCARCT [V52W] as the variant, how does the abundance fitness read?
Its abundance fitness is -0.36 ± 0.092.

Which abundance fitness does the source give for AMEMGLACVVCRQMMVASGNSLVECQECHNLYHRDCHKPQVTDKEANDPRLVWYCARCT [Q21S] here?
The abundance fitness was 0.019 ± 0.035.

For AMEMGLACVVCRQMMVASGNDLVECQECHNLYHRDCHKPQVTDKEANDPRLVWYCARCT [Q21D], which abundance fitness is on record?
The abundance fitness was -0.008 ± 0.041.
